{"source": "patent US8409836B2", "about": "“Treatment of cellulosic material and enzymes useful therein” (Roal Oy, priority 2005, dated 2013)", "molecules": {"B1": {"name": "Ta EG_28: endoglucanase of Thermoascus aurantiacus ALKO4242, gene Ta cel5A, amino acid SEQ ID NO: 10 (protein)", "chain": "MKLGSLVLALSAARLTLSAPLADRKQETKRAKVFQWFGSNESGAEFGSQNLPGVEGKDYIWPDPNTIDTLISKGMNIFRVPFMMERLVPNSMTGSPDPNYLADLIATVNAITQKGAYAVVDPHNYGRYYNSIISSPSDFQTFWKTVASQFASNPLVIFDTNNEYHDMDQTLVLNLNQAAIDGIRSAGATSQYIFVEGNSWTGAWTWTNVNDNMKSLTDPSDKIIYEMHQYLDSDGSGTSATCVSSTIGQERITSATQWLRANGKKGIIGEFAGGANDVCETAITGMLDYMAQNTDVWTGAIWWAAGPWWGDYIFSMEPDNGIAYQQILPILTPYL"}}, "assay_type_in_all_cases": "biochemical", "key": {"[1]": {"experiment": "Endoglucanase activity on carboxymethyl cellulose", "conditions": "purified endoglucanase, 50° C., procedure of IUPAC 1987", "procedure,_shortened": "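Endoglucanase activity of purified enzymes from Acremonium thermophilum ALKO4245 and Thermoascus aurantiacus ALKO4242 measured on carboxymethyl cellulose by the IUPAC 1987 standard procedure. Protein by Lowry for purified preparations; the A. thermophilum supernatant was pre-incubated 24 h at 70 °C before purification.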"}, "[2]": {"experiment": "Hydrolysis with endoglucanase preparations, corn stover", "conditions": "with CBHI and CBHII of T. reesei; 48 h, 45° C., pH 5.0", "protocol": "(§1) The preparations containing the endoglucanases were compared in hydrolysis studies mixed with the purified CBH/Cel7 and CBH/Cel6 enzymes on several pre-treated substrates. Culture filtrates of T. reesei, containing different cloned endoglucanase enzymes were obtained as described in Example 19. The enzymes were enriched by removing thermolabile proteins from the mixtures by a heat treatment (60° C., 2 h, pH 5) and the supernatant was used for the hydrolysis studies. In addition, pure T. reesei cellulases (purified as described by Suurnäkki et al., 2000) were used in the enzyme mixtures. The endoglucanases used in the experiment were:\nSteam exploded corn stover fibre (steam pre-treatment at 210° C. for 5 min), dry matter 31.0% (SECS).\n(§2) The endoglucanases to be studied (dosage 840 nkat/g dry matter, based on endoglucanase activity against HEC according to IUPAC, 1987) were used either with cellobiohydrolases of T. reesei (CBHI/Cel7A, 8.1 mg/g d.m. and CBHII/Cel6A, 2.0 mg/g d.m.) or with Thermoascus aurantiacus Cel7A with genetically attached CBD of T. reesei (10.1 mg/g d.m.). Purified (Suurnäkki et al., 2000) EGI (Cel7B) and EGII (Cel5A) of T. reesei were also included in the experiments for comparison. All mixtures were supplemented with additional β-glucosidase from Novozym 188 (to make the total β-glucosidase dosage 560 nkat/g d.w., the relatively high dosage was used to compensate the differences in the background activities of the different EG preparations). Triplicate tubes were incubated in mixing at 45° C. for 48 h and reference samples with inactivated enzymes and corresponding substrates were prepared. The release of hydrolysis products was measured as reducing sugars with DNS method using glucose as standard (Table 31)."}, "[3]": {"experiment": "Hydrolysis with endoglucanase preparations, spruce", "conditions": "48 h, 45° C., pH 5.0", "protocol": "as §1\nWashed steam pre-treated spruce fibre (impregnation with 3% SO2 for 20 min, followed by steam pre-treatment at 215° C. for 5 min), dry matter 25.9% (SPRUCE).\nas §2"}, "[4]": {"experiment": "Temperature optimum of heterologously produced endoglucanases", "conditions": "temperature range 50-85° C., CMC", "protocol": "(§3) The pH optimum of the heterologously produced endoglucanases was determined in the universal McIlvaine's buffer within a pH range of 4.0-8.0 using carboxymethylcellulose as substrate. As shown in FIG. 6 A the broadest pH range (4.5-6.0) is that of the Acremonium EG—40/Cel45A protein, the optimum being at pH 5.5. The pH optima for the other heterologously produced endoglucanases are pH 5.0-5.5 and 6.0 for Acremonium EG—40_like/Cel45B and Thermoascus EG—28/Cel5A, respectively. The optimal temperature for enzymatic activity of these endoglucanases was determined at the temperature range of 50-85° C. as described above. The highest activity of the enzymes was determined to be at 75° C., 60° C., and 75° C. for the Acremonium EG—40/Cel45A, EG—40 like/Cel45B, and Thermoascus EG—28/Cel5A, respectively (FIG. 6 B)."}, "[5]": {"experiment": "pH optimum of heterologously produced endoglucanases", "conditions": "McIlvaine's buffer, pH range 4.0-8.0, CMC, 10 min, 50° C.", "protocol": "as §3"}}, "data": [{"molecule": "B1", "values": [{"measurement": "Specific activity on CMC", "setting": "[1]", "value": 4290, "unit": "nkat/mg"}, {"measurement": "Hydrolysis products as reducing sugars, SECS", "setting": "[2]", "value": 3.9, "unit": "mg/mL"}, {"measurement": "Hydrolysis products as reducing sugars, SPRUCE", "setting": "[3]; with CBHI and CBHII of T. reesei", "value": 3.0, "unit": "mg/mL"}, {"measurement": "Hydrolysis products as reducing sugars, SPRUCE", "setting": "[3]; with T. aurantiacus Cel7A + Tr CBD", "value": 1.5, "unit": "mg/mL"}, {"measurement": "Temperature of highest activity", "setting": "[4]", "value": 75, "unit": "°C"}, {"measurement": "pH optimum", "setting": "[5]", "value": 6.0}]}]}
